According to patent US10221225B2, “Peptides and combination of peptides and scaffolds thereof for use in immunotherapy against colorectal carcinoma (CRC) and other cancers” (immatics biotechnologies GmbH, priority 2015, dated 2019):

Key:
CD8+ T-cells = assay: In vitro T-cell priming assay with aAPCs loaded with peptide/MHC and anti-CD28, pMHC multimer readout; format: cell-based, human; conditions: in vitro immunogenicity; for Wells positive: HLA-A*02 restricted peptides; for donors (percentage of positive donors) / wells (percentage of positive wells): HLA class I peptides
Source text: In order to obtain information regarding the immunogenicity of the TUMAPs of the present invention, the inventors performed investigations using an in vitro T-cell priming assay based on repeated stimulations of CD8+ T-cells with artificial antigen presenting cells (aAPCs) loaded with peptide/MHC complexes and anti-CD28 antibody.
In order to perform in vitro stimulations by artificial antigen presenting cells loaded with peptide-MHC complex (pMHC) and anti-CD28 antibody, the inventors first isolated CD8+ T-cells from fresh HLA-A*02 leukopheresis products via positive selection using CD8 microbeads (Miltenyi Biotec, Bergisch-Gladbach, Germany) of healthy donors obtained from the University clinics Mannheim, Germany, after informed consent.
PBMCs and isolated CD8+ lymphocytes were incubated in T-cell medium (TCM) until use consisting of RPMI-Glutamax (Invitrogen, Karlsruhe, Germany) supplemented with 10% heat inactivated human AB serum (PAN-Biotech, Aidenbach, Germany), 100 U/ml Penicillin/100 μg/ml Streptomycin (Cambrex, Cologne, Germany), 1 mM sodium pyruvate (CC Pro, Oberdorla, Germany), 20 μg/ml Gentamycin (Cambrex). 2.5 ng/ml IL-7 (PromoCell, Heidelberg, Germany) and 10 U/ml IL-2 (Novartis Pharma, Nürnberg, Germany) were also added to the TCM at this step.
Generation of pMHC/anti-CD28 coated beads, T-cell stimulations and readout was performed in a highly defined in vitro system using four different pMHC molecules per stimulation condition and 8 different pMHC molecules per readout condition.
The purified co-stimulatory mouse IgG2a anti human CD28 Ab 9.3 (Jung et al., 1987) was chemically biotinylated using Sulfo-N-hydroxysuccinimidobiotin as recommended by the manufacturer (Perbio, Bonn, Germany). Beads used were 5.6 μm diameter streptavidin coated polystyrene particles (Bangs Laboratories, Illinois, USA).
800,000 beads/200 μl were coated in 96-well plates in the presence of 4×12.5 ng different biotin-pMHC, washed and 600 ng biotin anti-CD28 were added subsequently in a volume of 200 μl. Stimulations were initiated in 96-well plates by co-incubating 1×10^6 CD8+ T-cells with 2×10^5 washed coated beads in 200 μl TCM supplemented with 5 ng/ml IL-12 (PromoCell) for 3 days at 37° C. Half of the medium was then exchanged by fresh TCM supplemented with 80 U/ml IL-2 and incubating was continued for 4 days at 37° C. This stimulation cycle was performed for a total of three times. For the pMHC multimer readout using 8 different pMHC molecules per condition, a two-dimensional combinatorial coding approach was used as previously described (Andersen et al., 2012) with minor modifications encompassing coupling to 5 different fluorochromes. Finally, multimeric analyses were performed by staining the cells with Live/dead near IR dye (Invitrogen, Karlsruhe, Germany), CD8-FITC antibody clone SK1 (BD, Heidelberg, Germany) and fluorescent pMHC multimers. For analysis, a BD LSRII SORP cytometer equipped with appropriate lasers and filters was used. Peptide specific cells were calculated as percentage of total CD8+ cells. Evaluation of multimeric analysis was done using the FlowJo software (Tree Star, Oregon, USA). In vitro priming of specific multimer+ CD8+ lymphocytes was detected by comparing to negative control stimulations.

HLA-A*02:01 = HLA-A*02:01 (Homo sapiens, UniProt P04439, D140Y/D185E/D98H/E176V/E277Q/G131W/G231S/I119V/I121R/I166T/I218V/L300P/L318F/N151K/N90K/P208A/P217A/Q86G/Q94H/R138H/R169H/T345S); assay: MHC binding assay (UV-ligand exchange, beta2m ELISA, peptide exchange yield); conditions: MHC class I binding score; binding to HLA-A*02:01 ranged by peptide exchange yield (UV-ligand exchange, β2m ELISA)
Source text: Candidate peptides for T cell based therapies according to the present invention were further tested for their MHC binding capacity (affinity). The individual peptide-MHC complexes were produced by UV-ligand exchange, where a UV-sensitive peptide is cleaved upon UV-irradiation, and exchanged with the peptide of interest as analyzed. Only peptide candidates that can effectively bind and stabilize the peptide-receptive MHC molecules prevent dissociation of the MHC complexes. To determine the yield of the exchange reaction, an ELISA was performed based on the detection of the light chain (β2m) of stabilized MHC complexes. The assay was performed as generally described in Rodenko et al. (Rodenko et al., 2006).
96 well MAXISorp plates (NUNC) were coated over night with 2 ug/ml streptavidin in PBS at room temperature, washed 4× and blocked for 1 h at 37° C. in 2% BSA containing blocking buffer. Refolded HLA-A*02:01/MLA-001 monomers served as standards, covering the range of 15-500 ng/ml. Peptide-MHC monomers of the UV-exchange reaction were diluted 100 fold in blocking buffer. Samples were incubated for 1 h at 37° C., washed four times, incubated with 2 ug/ml HRP conjugated anti-β2m for 1 h at 37° C., washed again and detected with TMB solution that is stopped with […]. Absorption was measured at 450 nm. Candidate peptides that show a high exchange yield (preferably higher than 50%, most preferred higher than 75%) are generally preferred for a generation and production of antibodies or fragments thereof, and/or T cell receptors or fragments thereof, as they show sufficient avidity to the MHC molecules and prevent dissociation of the MHC complexes.

| Peptide exchange (HLA-A*02:01) | Substance | Wells positive (CD8+ T-cells) | donors (percentage of positive donors) (CD8+ T-cells) | wells (percentage of positive wells) (CD8+ T-cells) |
| --- | --- | --- | --- | --- |
| ″+++″ (≥50 = +++) | 1 (ALIKQLFEA; listed as Homo sapiens) [compound 1] | ″+″ (<20% = +) | – | – |
| ″++″ (≥20% = ++) | 2 (ALLPRYFFL; listed as Homo sapiens) [compound 2] | ″++++″ (>= 70% = ++++) | – | – |
| ″++++″ (≥75% = ++++) | 3 (RLIPDTLYSV; listed as Homo sapiens) [compound 3] | ″+++″ (50%-69% = +++) | – | – |
| ″++++″ (≥75% = ++++) | 5 (WLFDDGGLTL; listed as Homo sapiens) [compound 5] | ″++″ (20%-49% = ++) | – | – |
| ″++″ (≥20% = ++) | 7 (YLTRHLAVL; listed as Homo sapiens) [compound 7] | ″+″ (<20% = +) | – | – |
| ″++″ (≥20% = ++) | 9 (ILDDHLSRV; listed as Homo sapiens) [compound 9] | ″+″ (<20% = +) | – | – |
| ″+++″ (≥50 = +++) | 10 (RMYNKIFAI; listed as Homo sapiens) [compound 10] | ″++++″ (>= 70% = ++++) | – | – |
| ″+++″ (≥50 = +++) | 11 (YLFEKTFNM; listed as Homo sapiens) [compound 11] | ″+″ (<20% = +) | – | – |
| ″+++″ (≥50 = +++) | 12 (ALVQGILERV; listed as Homo sapiens) [compound 12] | ″++++″ (>= 70% = ++++) | – | – |
| ″+++″ (≥50 = +++) | 13 (FLLAEDTKV; listed as Homo sapiens) [compound 13] | ″++″ (20%-49% = ++) | – | – |
| ″+++″ (≥50 = +++) | 17 (ALAAARVEL; listed as Homo sapiens) [compound 17] | ″++″ (20%-49% = ++) | – | – |
| ″+++″ (≥50 = +++) | 18 (FLSSLKGGLL; listed as Homo sapiens) [compound 18] | ″+″ (<20% = +) | – | – |
| ″+++″ (≥50 = +++) | 19 (RLYTKLLNEA; listed as Homo sapiens) [compound 19] | ″+++″ (50%-69% = +++) | – | – |
| ″+++″ (≥50 = +++) | 21 (VLIDHRWVL; listed as Homo sapiens) [compound 21] | ″+″ (<20% = +) | – | – |
| ″+++″ (≥50 = +++) | 22 (GLIDEVMVL; listed as Homo sapiens) [compound 22] | ″++″ (20%-49% = ++) | – | – |
| ″+++″ (≥50 = +++) | 31 (LLYGKYVSV; listed as Homo sapiens) [compound 31] | ″++″ (20%-49% = ++) | – | – |
| ″++″ (≥20% = ++) | 32 (KLNTETFGV; listed as Homo sapiens) [compound 32] | ″++″ (20%-49% = ++) | – | – |
| ″+++″ (≥50 = +++) | 37 (GLFAGLGGAGA; listed as Homo sapiens) [compound 37] | ″+″ (<20% = +) | – | – |
| ″++″ (≥20% = ++) | 38 (SLAPTPVSA; listed as Homo sapiens) [compound 38] | ″+″ (<20% = +) | – | – |
| ″++++″ (≥75% = ++++) | 42 (SILDDSFKL; listed as Homo sapiens) [compound 42] | ″+″ (<20% = +) | – | – |
| ″++″ (≥20% = ++) | 47 (KLYERCEVV; listed as Homo sapiens) [compound 47] | ″+″ (<20% = +) | – | – |

| Peptide exchange (HLA-A*02:01) | Substance | Wells positive (CD8+ T-cells) | donors (percentage of positive donors) (CD8+ T-cells) | wells (percentage of positive wells) (CD8+ T-cells) |
| --- | --- | --- | --- | --- |
| ″+++″ (≥50 = +++) | 59 (LLTDNVVKL; listed as Homo sapiens) [compound 59] | ″+″ (<20% = +) | – | – |
| ″++″ (≥20% = ++) | 64 (KTLGKLWRL; listed as Homo sapiens) [compound 64] | ″++++″ (>= 70% = ++++) | – | – |
| ″++″ (≥20% = ++) | 123 (KTLERSYLL; listed as Homo sapiens) [compound 123] | ″+″ (<20% = +) | – | – |
| ″+++″ (≥50 = +++) | 124 (RVLPPSALQSV; listed as Homo sapiens) [compound 124] | ″+″ (<20% = +) | – | – |
| ″+++″ (≥50 = +++) | 127 (RLAELTVDEFLA; listed as Homo sapiens) [compound 127] | ″+″ (<20% = +) | – | – |
| ″++″ (≥20% = ++) | 132 (ALLNAILHSA; listed as Homo sapiens) [compound 132] | ″+″ (<20% = +) | – | – |
| ″++″ (≥20% = ++) | 133 (RTFEKIEEV; listed as Homo sapiens) [compound 133] | ″+″ (<20% = +) | – | – |
| ″+++″ (≥50 = +++) | 136 (KLFDIFSQQV; listed as Homo sapiens) [compound 136] | ″++″ (20%-49% = ++) | – | – |
| ″++++″ (≥75% = ++++) | 141 (AVIEHLERL; listed as Homo sapiens) [compound 141] | ″+″ (<20% = +) | – | – |
| ″+++″ (≥50 = +++) | 142 (SLVQRVETI; listed as Homo sapiens) [compound 142] | ″+″ (<20% = +) | – | – |
| ″+++″ (≥50 = +++) | 183 (TLQEVVTGV; listed as Homo sapiens) [compound 183] | – | – | – |
| ″+++″ (≥50 = +++) | 184 (SLLDENNVSSYL; listed as Homo sapiens) [compound 184] | – | – | – |
| ″+++″ (≥50 = +++) | 185 (VLYTGVVRV; listed as Homo sapiens) [compound 185] | – | – | – |
| ″+++″ (≥50 = +++) | 186 (KMSEKILLL; listed as Homo sapiens) [compound 186] | – | – | – |
| ″+++″ (≥50 = +++) | 187 (GLHNVVYGI; listed as Homo sapiens) [compound 187] | – | – | – |
| ″+++″ (≥50 = +++) | 188 (FLVDGPRVQL; listed as Homo sapiens) [compound 188] | – | – | – |
| ″+++″ (≥50 = +++) | 189 (AISEVIGKITA; listed as Homo sapiens) [compound 189] | – | – | – |
| ″+++″ (≥50 = +++) | 190 (AMAEMVLQV; listed as Homo sapiens) [compound 190] | – | – | – |
| ″++++″ (≥75% = ++++) | 191 (QLFSEIHNL; listed as Homo sapiens) [compound 191] | – | – | – |
| – | 219 (FLDEKGRCV; listed as Homo sapiens) [compound 219] | – | +++ (50%-69% = +++) | ++ (20%-49% = ++) |
| – | 220 (KMDPVAYRV; listed as Homo sapiens) [compound 220] | – | ++++ (>=70% = ++++) | +++ (50%-69% = +++) |
